US20250333441A1, “POLYPEPTIDE INHIBITORS AND USES THEREOF” (Neuracle Science Co., Ltd., priority 2021, published 2025)
Where a SMILES comes first, the peptide text is derived from it. Where no end group is shown, it is not given here. [ ]: non-standard residue; d: D form.

Experiments:
[1] = target: complex of His-TEV LRRC4B and recombinant FAM19A5 protein (Homo sapiens, UniProt Q7Z5A7); experiment: Competitive inhibition assay (IC50), plate coated with His-TEV LRRC4B; type: binding; settings: FIG. 22C; d-form peptides; methods as for Table 15
Description: To further assess the inhibitory effect of the FB-21 mutants, the ability of additional FB-21 mutants described in Example 9 were tested for their ability to inhibit the interaction between FAM19A5 protein and LRRC4B protein. Briefly, plates were coated with 100 nM of His-TEV LRRC4B and then 1 ng/mL of rFAM19A5 was incubated at 37° C. in the presence of increasing concentrations of the FB-21 peptide fragments (0.3, 1, 3, 10, 30, 100, 300, 1000, 3000 and 10000 nM). The LRRC4B-bound FAM19A5 levels were measured using HRP-conjugated 1-65 SS01 antibody. As shown in FIG. 22B (see Table 15 for IC50), most (if not all) of the FB-21 mutants had improved ability in inhibiting the interaction between LRRC4B and recombinant FAM19A5 protein.
Next, to assess whether other properties of the polypeptides described herein can be improved (e.g., solubility, prevention of degradation from protease and peptidase, and in vivo administration), the following additional FB-21 peptide mutants were constructed and tested for their ability to inhibit the interaction between FAM19A5 protein and LRRC4B: (1) d-form FB-21 peptide (“dFB-21”), (2) d-form FB-21 peptide with juxta-membrane (JM) sequence (“dFB-JM-31”), (3) d-form FB-21 peptide with BBB penetrating sequence at each end of the sequence (“dFB-BBB-39”), and (4) d-form FB-21 mutant peptide with DY replacement and additional JM sequence (“dFB-DY-JM31”). […]

[2] = target: complex of human LRRC4B protein (hFc-fused) and recombinant FAM19A5 protein (Homo sapiens, UniProt Q7Z5A7); experiment: Competitive inhibition assay (IC50), plate coated with LRRC4B(453-576, TT/TT)-hFc; type: binding; settings: hFc-fused hLRRC4B; from IC50 of Table 14
Description: The in silico analysis provided in Example 9 highlighted that certain T12 and L13 double mutants might be important in improving the binding affinity of the polypeptides of the present disclosure to the FAM19A5 protein. Therefore, the ability of both the wild-type FB-21 peptide (which is the same as the FB-20 peptide described herein except that the FB-21 peptide additionally contains an alanine at the C-terminus) and several FB-21 mutants were tested for their inhibitor effect on hFc-fused hLRRC4B and FAM19A5 complex formation. Briefly, plate was coated with 100 nM of LRRC4B(453-576, TT/TT)-hFc and then 1 ng/mL of rFAM19A5 was incubated at 37° C. in the presence of increasing concentrations of the different FB-21 peptide fragments (0.03, 0.1, 0.3, 1, 3, 10, 30, 100, 300 and 1000 nM). The LRRC4B-bound FAM19A5 levels were measured using HRP-conjugated 1-65 antibody.

[3] = system: mouse hippocampal neurons treated with toxic amyloid beta oligomer; experiment: Amyloid beta-induced synapse loss in primary hippocampal neurons; type: cell-based; settings: 6.6 nM; co-treated with toxic amyloid beta oligomer; 21 DIV
Description: Alzheimer's disease (AD) is tightly associated with the dysmetabolism of amyloid-R (A3). To begin assessing whether the polypeptides provided herein (i.e., comprising the FAM19A5 binding domain of LRRC4 protein family members) could have any therapeutic effects on AD, the effect of various FB-21 peptide fragments described herein on the deformation of synapse induced by toxic A3 oligomer and following structural recovery was assessed. Specifically, the following FB-21 peptide fragments were tested: FB-21, FB-JM-31 and FB-BBB-39 (see Example 10).
Aβ42 (#20276) peptide was purchased from AnaSpec (Fremont, USA). […]
Hippocampal neurons were treated with 6.6 nM FB-21, 6.6 nM of FB-13-JM and 6.6 nM of FB-13-BBBX2 at 14, 17 and 20 DIV to determine the level of synaptogenesis at 21 DIV by immunostaining SYP, a presynapse marker protein and PSD95, a postsynapse marker protein. To quantify fluorescence intensity for SYN and PSD95 and number of colocalized voxels between SYN and PSD95 signals, z-stack confocal images of 3 m in depth were converted to 3D images using IMARIS software (IMARIS9.0, Bitplane AG, Zurich, Switzerland). The “Surface tool” of the IMARIS software was used to exclude all the signals detected in neuronal cell bodies, and number of colocalized voxels between SYN and PSD95 signals in neurites were calculated using the “Coloc tool”. […]

[4] = target: binding of FAM19A5 protein to full-length ectodomain of LRRC4 protein (Homo sapiens, UniProt Q7Z5A7); experiment: Competitive inhibition assay, plate coated with full-length LRRC4 ectodomain; settings: 100 nM/well coated full-length LRRC4 ectodomain; FAM19A5 5 ng/mL
Description: (§1) As described in Example 3, there appeared to be much similarity in the binding domains of the different members of the LRRC4 family. […] Then, recombinant FAM19A5 protein (5 ng/mL) was added in combination with one of the following: (i) LRRC4B (484-576) protein fragment, (ii) LRRC4B (453-576, AA) protein fragment, and (iii) synthetic FB-20 peptide. The plates were incubated at 37° C., and then, the amount of FAM19A5 protein bound to the coated LRRC4, LRRC4B, or LRRC4C proteins was measured using anti-FAM19A5 (1-65) antibody.

[5] = target: T1, FAM19A5 (isoform 2) - full-length LRRC4B protein complex (Homo sapiens, UniProt Q7Z5A7); experiment: Immunofluorescence: dissociation of FAM19A5 from full-length LRRC4B in HEK293 cells; type: cell-based; settings: HEK293 cells expressing FAM19A5 isoform 2 and LRRC4B, treated 30 minutes
T1 construct: expressed in transfected cells; host or cells: HEK293
Description: Since LRRC4B protein fragments containing the binding domain described in Example 2 (e.g., LRRC4B (453-576); i.e., construct #11 in Table 6) was able to bind to FAM19A5 protein with high affinity, it was next assessed whether such protein fragments could compete with naturally existing LRRC4B protein for binding to FAM19A5 protein, and thereby, dissociate the FAM19A5-LRRC4 protein family complex. Briefly, HEK293 cells expressing both FAM19A5 isoform 2 and LRRC4B protein were treated (i.e., cultured in vitro) for 30 minutes with either LRRC4B (453-576)-hFc or mutant LRRC4B (453-576)-hFc (includes alanine substitutions at positions 488 and 489 of SEQ ID NO: 2; SEQ ID NO: 16) protein fragments. Then, the cells were immunostained with anti-FAM19A5 (1-65) and anti-LRRC4B antibodies to determine the expression of FAM19A5 and full-length LRRC4B proteins, respectively. The hFc-fused LRRC4B protein fragments were determined using an anti-hIgG antibody. The nuclei were stained with Hoechst 33342.

[6] = target: binding of FAM19A5 protein to full-length ectodomain of LRRC4C protein (Homo sapiens, UniProt Q7Z5A7); experiment: Competitive inhibition assay, plate coated with full-length LRRC4C ectodomain; settings: 100 nM/well coated full-length LRRC4C ectodomain; FAM19A5 5 ng/mL
Description: as §1

[7] = target: binding of FAM19A5 protein to full-length ectodomain of the LRRC4B protein (amino acids 36-576)-hFc (Homo sapiens, UniProt Q7Z5A7); experiment: Competitive inhibition assay, plate coated with full-length LRRC4B ectodomain; settings: 100 nM coated ectodomain; FAM19A5 5 ng/mL; increasing concentrations
Description: Next, to further assess the role that the binding domain of the LRRC4B protein has on the interaction between FAM19A5 protein and members of the LRRC4 protein family, a competitive inhibition assay was used to determine whether different LRRC4B deletion constructs from Example 2 could inhibit the binding of FAM19A5 to the full-length ectodomain of the LRRC4B protein (i.e., amino acids 36-576 of SEQ ID NO: 2; SEQ ID NO: 5). Briefly, 100 nM of the full-length ectodomain of the LRRC4B protein was used to coat a plate, and then recombinant FAM19A5 protein (5 ng/mL) was added to the plate in combination with the following LRRC4B deletion constructs (increasing concentrations): (1) LRRC4B (453-576) (i.e., construct #11 in Table 6); (2) LRRC4B (453-576) mutant (comprises alanine substitutions at positions 488 and 489 of SEQ ID NO: 2; SEQ ID NO: 16); (3) LRRC4B (484-576) (i.e., construct #12 in Table 6); (4) LRRC4B (482-576); (5) LRRC4B (482-497); and (6) LRRC4B (498-576). The plates were incubated at 37° C., and then, the amount of FAM19A5 bound to the coated LRRC4B ectodomain protein was measured using H1RP-conjugated anti-FAM19A5 (1-65) antibody. […]

[8] = target: FAM19A5 protein (Homo sapiens, UniProt Q7Z5A7); experiment: competitive inhibition ELISA; competitor: coated LRRC4B(453-576, TT/TT)-hFc

Chain of complex of His-TEV LRRC4B and recombinant FAM19A5 protein (Q7Z5A7 44-132, one chain of several): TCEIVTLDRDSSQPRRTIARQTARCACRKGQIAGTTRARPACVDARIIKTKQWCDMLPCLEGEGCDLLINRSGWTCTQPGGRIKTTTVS
Chain of binding of FAM19A5 protein to full-length ectodomain of the LRRC4B protein (amino acids 36-576)-hFc (Q7Z5A7 44-132): as the sequence (Q7Z5A7 44-132, one chain of several) above
Chain of binding of FAM19A5 protein to full-length ectodomain of LRRC4C protein (Q7Z5A7 44-132): as the sequence (Q7Z5A7 44-132, one chain of several) above
Chain of complex of human LRRC4B protein (hFc-fused) and recombinant FAM19A5 protein (Q7Z5A7 44-132, one chain of several): as above
Chain of binding of FAM19A5 protein to full-length ectodomain of LRRC4 protein (Q7Z5A7 44-132): as the sequence (Q7Z5A7 44-132, one chain of several) above
T1 sequence (Q7Z5A7 1-125 isoform Q7Z5A7-2, one chain of several): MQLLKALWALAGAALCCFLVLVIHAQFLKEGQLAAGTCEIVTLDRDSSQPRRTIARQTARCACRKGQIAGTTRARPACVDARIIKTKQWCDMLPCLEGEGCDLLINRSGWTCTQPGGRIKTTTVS

nYTYFTTVTVEDYETQPGEEALDEVMKTTKa ([dN]YTYFTTVTVEDYETQPGEEALDEVMKTTK[dA]; also: terminal modifications) [dFB-DY-JM31]
more effective in inhibiting complex formation compared to the wild-type FB-21 [1]: 4 fold

CC(C)[C@H](NC(=O)[C@@H](NC(=O)[C@@H](NC(=O)[C@@H](NC(=O)[C@@H](NC(=O)[C@H](Cc1ccccc1)NC(=O)[C@H](Cc1ccc(O)cc1)NC(=O)[C@@H](NC(=O)[C@H](Cc1ccc(O)cc1)NC(=O)CN)[C@@H](C)O)[C@@H](C)O)[C@@H](C)O)C(C)C)[C@@H](C)O)C(=O)N[C@@H](CCC(=O)O)C(=O)N[C@@H](Cc1c[nH]c2ccccc12)C(=O)N[C@@H](Cc1ccc(O)cc1)C(=O)N[C@@H](CCC(=O)O)C(=O)N[C@H](C(=O)N[C@@H](CCC(N)=O)C(=O)N1CCC[C@H]1C(=O)NCC(=O)N[C@@H](CCC(=O)O)C(=O)N[C@@H](CCC(=O)O)C(=O)N[C@@H](C)C(=O)O)[C@@H](C)O [FB-21 (W12Y13)] (H-GYTYFTTVTVEWYETQPGEEA-OH; N-terminus and C-terminus assumed)
increase in ability to dissociate the LRRC4B-FAM19A5 complex compared with wild-type FB-21 [2]: 2.9 fold

nYTYFTTVTVETLETQPGEEALDEVMKTTKa ([dN]YTYFTTVTVETLETQPGEEALDEVMKTTK[dA]; also: terminal modifications) [dFB-JM-31]
colocalized voxels for PSD95 and synaptophysin [3]: significant increase

B1: LRRC4B mutant: LRRC4B (453-576) with alanine substitutions at positions 488 and 489 of SEQ ID NO: 2 (SEQ ID NO: 16) (protein)
chain: VSAVDPVAAGGTGSGGGGPGGSGGVGGGSGGYTYFAAVTVETLETQPGEEALQPRGTEKEPPGPTTDGVWGGGRPGDAAGPASSSTTAPAPRSSRPTEKAFTVPITDVTENALKDLDDVMKTTK
modifications: human Fc fusion in use
inhibition of FAM19A5 binding to coated LRRC4 protein [4]: minimal effect
dissociation of FAM19A5 from full-length LRRC4B protein [5]: FAM19A5 protein remained largely bound
inhibition of FAM19A5 binding to coated LRRC4C protein [6]: minimal effect
inhibition of FAM19A5 binding to coated full-length LRRC4B ectodomain protein [7]: much inferior in their ability to inhibit the interaction

GYTYFTTVTVEWYETQPGEEA [FB-21 (W12Y13)]
fold increase in ability to dissociate the LRRC4B-FAM19A5 complex, against wild-type FB-21 [8]: 2.9 fold
